Here are results for five sequences from the supplement of paper PMC5998384.

The test system of series [1] is HeLa Kyoto. Kind of series: melting temperature (median over replicates), in situ; higher = more thermally stable.
The subject of series [2] is HeLa Kyoto. Kind of series: solubility in G1/S (NP-40 vs SDS abundance) (log2 ratio); higher = more soluble. Particulars: cell cycle stage: G1/S.
For series [3], the system named is HeLa Kyoto. Kind of series: thermal stability score vs G1/S (z-score of summed log2 fold changes over temperatures); higher = more thermally stable than in G1/S.
Series [4] concerns HeLa Kyoto. The series can be described thus: solubility change mitosis vs G1/S (difference of NP-40 vs SDS log2 ratios) (log2 ratio difference); higher = more soluble in mitosis.
The mark [5] stands for this setting: cell cycle stage: early G1 (4.5 h after nocodazole release).
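For melting temperature (median over replicates), in situ in this document: HeLa Kyoto cells synchronized by double thymidine or nocodazole block, proteins quantified by TMT10plex mass spectrometry, three independent biological replicates.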
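For solubility change mitosis vs G1/S (difference of NP-40 vs SDS log2 ratios) in this document: synchronized HeLa Kyoto cells (double thymidine block for G1/S, nocodazole release for mitosis), protein amounts in NP-40 versus SDS lysates quantified by mass spectrometry, three biological replicates.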
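For solubility in G1/S (NP-40 vs SDS abundance) in this document: HeLa Kyoto cells arrested at G1/S by double thymidine block, proteins quantified by TMT10plex mass spectrometry in mild NP-40 versus SDS extracts, three biological replicates.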
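For thermal stability score vs G1/S (z-score of summed log2 fold changes over temperatures) in this document: synchronized HeLa Kyoto cells, proteins quantified by TMT10plex mass spectrometry, three biological replicates, mitosis taken 0.5 h after nocodazole release, G1/S directly after double thymidine block.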

For the sequence “MSDKSELKAELERKKQRLAQIREEKKRKEEERKKKETDQKKEAVAPVQEESDLEKKRREAEALLQSMGLTPESPIVFSEYWVPPPMSPSSKSVSTPSEAGSQDSGDGAVGSRTLHWDTDPSVLQLHSDSDLGRGPIKLGMAKITQVDFPPREIVTYTKETQTPVMAQPKEDEEEDDDVVAPKPPIEPEEEKTLKKDEENDSKAPPHELTEEEKQQILHSEEFLSFFDHSTRIVERALSEQINIFFDYSGRDLEDKEGEIQAGAKLSLNRQFFDERWSKHRVVSCLDWSSQYPELLVASYNNNEDAPHEPDGVALVWNMKYKKTTPEYVFHCQSAVMSATFAKFHPNLVVGGTYSGQIVLWDNRSNKRTPVQRTPLSAAAHTHPVYCVNVVGTQNAHNLISISTDGKICSWSLDMLSHPQDSMELVHKQSKAVAVTSMSFPVGDVNNFVVGSEEGSVYTACRHGSKAGISEMFEGHQGPITGIHCHAAVGAVDFSHLFVTSSFDWTVKLWTTKNNKPLYSFEDNADYVYDVMWSPTHPALFACVDGMGRLDLWNLNNDTEVPTASISVEGNPALNRVRWTHSGREIAVGDSEGQIVIYDVGEQIAVPRNDEWARFGRTLAEINANRADAEEEAATRIPA [DYNC1I2]”, the melting temperature was found to be 53.2 °C in the series on HeLa Kyoto [1] (cell cycle stage: G1/S) and 52.3 °C in the series on HeLa Kyoto [1] (cell cycle stage: mitosis). Moreover, the “solubility in G1/S (log2)” value in the series on HeLa Kyoto [2] is -0.0277. The thermal stability score in the series with HeLa Kyoto [3] (setting [5]) is -2.66; in the series on HeLa Kyoto [3] (cell cycle stage: mitosis), -3.05. In addition, the “solubility change mitosis (log2)” value in the series on HeLa Kyoto [4] is -0.0123.
Consider “MLRAGWLRGAAALALLLAARVVAAFEPITVGLAIGAASAITGYLSYNDIYCRFAECCREERPLNASALKLDLEEKLFGQHLATEVIFKALTGFRNNKNPKKPLTLSLHGWAGTGKNFVSQIVAENLHPKGLKSNFVHLFVSTLHFPHEQKIKLYQDQLQKWIRGNVSACANSVFIFDEMDKLHPGIIDAIKPFLDYYEQVDGVSYRKAIFIFLSNAGGDLITKTALDFWRAGRKREDIQLKDLEPVLSVGVFNNKHSGLWHSGLIDKNLIDYFIPFLPLEYRHVKMCVRAEMRARGSAIDEDIVTRVAEEMTFFPRDEKIYSDKGCKTVQSRLDFH [TOR1B]”, for which the melting temperature in the series with HeLa Kyoto [1] (cell cycle stage: G1/S) is 53.7 °C; in the series with HeLa Kyoto [1] (cell cycle stage: mitosis), 53.9 °C. The “solubility in G1/S (log2)” value in the series with HeLa Kyoto [2] is 0.349. For the same sequence, the values for the thermal stability score in the series with HeLa Kyoto [3] (setting [5]) and with HeLa Kyoto [3] (cell cycle stage: mitosis) were 2.27 and 5.78, respectively. Further, in the series on HeLa Kyoto [4], the “solubility change mitosis (log2)” value is -0.143.
Take “MPSASASRKSQEKPREIMDAAEDYAKERYGISSMIQSQEKPDRVLVRVRDLTIQKADEVVWVRARVHTSRAKGKQCFLVLRQQQFNVQALVAVGDHASKQMVKFAANINKESIVDVEGVVRKVNQKIGSCTQQDVELHVQKIYVISLAEPRLPLQLDDAVRPEAEGEEEGRATVNQDTRLDNRVIDLRTSTSQAVFRLQSGICHLFRETLINKGFVEIQTPKIISAASEGGANVFTVSYFKNNAYLAQSPQLYKQMCICADFEKVFSIGPVFRAEDSNTHRHLTEFVGLDIEMAFNYHYHEVMEEIADTMVQIFKGLQERFQTEIQTVNKQFPCEPFKFLEPTLRLEYCEALAMLREAGVEMGDEDDLSTPNEKLLGHLVKEKYDTDFYILDKYPLAVRPFYTMPDPRNPKQSNSYDMFMRGEEILSGAQRIHDPQLLTERALHHGIDLEKIKAYIDSFRFGAPPHAGGGIGLERVTMLFLGLHNVRQTSMFPRDPKRLTP [DARS]”: the melting temperature in the series on HeLa Kyoto [1] (cell cycle stage: G1/S) is 49.4 °C; in the series with HeLa Kyoto [1] (cell cycle stage: mitosis), 49.2 °C. The “solubility in G1/S (log2)” value with HeLa Kyoto [2] is -0.115. Also, the thermal stability score was determined as 0.0385 with HeLa Kyoto [3] (setting [5]) and 4.02 with HeLa Kyoto [3] (cell cycle stage: mitosis). In the series on HeLa Kyoto [4], the “solubility change mitosis (log2)” value was -0.127.
As for “MAALVRPARFVVRPLLQVVQAWDLDARRWVRALRRSPVKVVFPSGEVVEQKRAPGKQPRKAPSEASAQEQREKQPLEESASRAPSTWEESGLRYDKAYPGDRRLSSVMTIVKSRPFREKQGKILLEGRRLISDALKAGAVPKMFFFSRLEYLKELPVDKLKGVSLIKVKFEDIKDWSDLVTPQGIMGIFAKPDHVKMTYPKTQLQHSLPLLLICDNLRDPGNLGTILRSAAGAGCSKVLLTKGCVDAWEPKVLRAGMGAHFRMPIINNLEWETVPNYLPPDTRVYVADNCGLYAQAEMSNKASDHGWVCDQRVMKFHKYEEEEDVETGASQDWLPHVEVQSYDSDWTEAPAAVVIGGETYGVSLESLQLAESTGGKRLLIPVVPGVDSLNSAMAASILLFEGKRQLRGRAEDLSRDRSYH [RNMTL1]”, the results for the melting temperature with HeLa Kyoto [1] (cell cycle stage: G1/S) and in the series with HeLa Kyoto [1] (cell cycle stage: mitosis) were 53.2 °C and 52.1 °C, respectively. Also, the “solubility in G1/S (log2)” value in the series with HeLa Kyoto [2] was -0.452. Further, the thermal stability score was -0.281 with HeLa Kyoto [3] (setting [5]) and -1.34 in the series with HeLa Kyoto [3] (cell cycle stage: mitosis). In the series with HeLa Kyoto [4], the “solubility change mitosis (log2)” value was determined as 0.163.
On to “MAAVWQQVLAVDARYNAYRTPTFPQFRTQYIRRRSQLLRENAKAGHPPALRRQYLRLRGQLLGQRYGPLSEPGSARAYSNSIVRSSRTTLDRMEDFEDDPRALGARGHRRSVSRGSYQLQAQMNRAVYEDRPPGSVVPTSAAEASRAMAGDTSLSENYAFAGMYHVFDQHVDEAVPRVRFANDDRHRLACCSLDGSISLCQLVPAPPTVLRVLRGHTRGVSDFAWSLSNDILVSTSLDATMRIWASEDGRCIREIPDPDSAELLCCTFQPVNNNLTVVGNAKHNVHVMNISTGKKVKGGSSKLTGRVLALSFDAPGRLLWAGDDRGSVFSFLFDMATGKLTKAKRLVVHEGSPVTSISARSWVSREARDPSLLINACLNKLLLYRVVDNEGTLQLKRSFPIEQSSHPVRSIFCPLMSFRQGACVVTGSEDMCVHFFDVERAAKAAVNKLQGHSAPVLDVSFNCDESLLASSDASGMVIVWRREQK [WDR13]”, for which the melting temperature with HeLa Kyoto [1] (cell cycle stage: G1/S) amounted to 53.2 °C; in the series with HeLa Kyoto [1] (cell cycle stage: mitosis), 53 °C. The “solubility in G1/S (log2)” value with HeLa Kyoto [2] stood at 0.0237. Further, the thermal stability score with HeLa Kyoto [3] (setting [5]) came out at 0.118; in the series with HeLa Kyoto [3] (cell cycle stage: mitosis), 0.204. Moreover, in the series with HeLa Kyoto [4], the “solubility change mitosis (log2)” value was -0.174.
